Reference: IntAct's records for PubMed 19427866

Target: T1, nbr1_human NBR1 (UniProt Q14596)
T1 sequence: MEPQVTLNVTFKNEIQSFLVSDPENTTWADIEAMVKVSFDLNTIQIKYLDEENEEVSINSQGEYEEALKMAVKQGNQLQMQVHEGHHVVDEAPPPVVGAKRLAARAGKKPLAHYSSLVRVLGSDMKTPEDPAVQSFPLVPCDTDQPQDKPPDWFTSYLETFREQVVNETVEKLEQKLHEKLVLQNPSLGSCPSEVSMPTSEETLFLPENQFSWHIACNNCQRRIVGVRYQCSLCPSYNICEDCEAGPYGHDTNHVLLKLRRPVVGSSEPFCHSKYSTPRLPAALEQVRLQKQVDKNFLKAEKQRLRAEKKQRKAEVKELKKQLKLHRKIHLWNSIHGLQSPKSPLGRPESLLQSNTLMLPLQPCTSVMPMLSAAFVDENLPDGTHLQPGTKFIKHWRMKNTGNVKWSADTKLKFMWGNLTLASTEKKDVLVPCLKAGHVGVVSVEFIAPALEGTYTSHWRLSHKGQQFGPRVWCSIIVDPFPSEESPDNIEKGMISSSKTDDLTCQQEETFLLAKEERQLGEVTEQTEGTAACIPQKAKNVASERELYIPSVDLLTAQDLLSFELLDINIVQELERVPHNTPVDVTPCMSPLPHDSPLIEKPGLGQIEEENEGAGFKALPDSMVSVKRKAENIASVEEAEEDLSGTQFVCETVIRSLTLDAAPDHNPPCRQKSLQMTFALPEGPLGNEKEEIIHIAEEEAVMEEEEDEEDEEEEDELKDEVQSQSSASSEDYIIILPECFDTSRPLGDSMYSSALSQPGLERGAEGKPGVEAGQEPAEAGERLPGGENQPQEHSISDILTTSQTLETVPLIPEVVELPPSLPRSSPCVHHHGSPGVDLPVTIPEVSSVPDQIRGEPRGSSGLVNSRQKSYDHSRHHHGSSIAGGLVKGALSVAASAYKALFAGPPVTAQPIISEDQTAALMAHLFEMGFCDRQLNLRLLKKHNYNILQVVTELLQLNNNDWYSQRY

Effect of a mutation on the interaction, decreasing interaction:
Polyubiquitin-C (Homo sapiens) (from UniProt P0CG48) K63R
Polyubiquitin-C (Homo sapiens) (from UniProt P0CG48) K33R
Polyubiquitin-C (Homo sapiens) (from UniProt P0CG48) K48R
